From the supplement of paper PMC10567573
± gives the standard deviation.

Assay: protein stability index of a GFP-peptide fusion (GPS, HEK-293T) (PSI 1-6); higher = more stable
Conditions: c terminus: a fixed tail appended
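Further: 24-mer peptide tiles fused after GFP, lentivirally expressed, FACS-sorted into six equal bins by GFP/DsRed ratio, decoded by Illumina sequencing, PSI is the read-weighted mean bin number.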

| Sequence | protein stability index (treatment: DMSO) | protein stability index (treatment: MLN4924 1 uM, 8 h) |
| --- | --- | --- |
| WIHRPGCRCKNSNTVYCKLESCPS [SPRY1] | 2.62 ± 0.26 | 3.21 ± 0.78 |
| TNIRLPNVPSSSLPAQPNRKPGMS [CHMP4C] | 4.66 ± 0.28 | 4.51 ± 0.45 |
| LHMSQRERTWPPPAMSPYWRTWMT [C22orf15] | 2.31 ± 0.24 | 2.56 ± 0.37 |
| SQPPKKKPKTTNIELQGVPNDEVH [RBBP5] | 5.32 ± 0.2 | 5.28 ± 0.14 |
| SEEALRADGFGDNPFYHCLVAEIL [SAT2] | 3.08 ± 0.24 | 3.26 ± 0.25 |
| REVILKELAEATWCGISTDMWRSE [ZBED1] | 2.71 ± 0.62 | 2.93 ± 0.58 |
| LRNKLRELCVKLMFLHPVDYGRKA [SMG5] | 3.21 ± 0.36 | 3.03 ± 0.51 |
| YQPLVTMDDAMERTVQSFRHLRRV [NSDHL] | 3.14 ± 0.24 | 3.22 ± 0.31 |
| ARCTAGTLHNLSHHREGLLAIFKS [CTNNB1] | 2.48 ± 0.19 | 2.45 ± 0.19 |
| PEPQVPGPAHGPAQEEPWEKKESL [ZNF232] | 5.55 ± 0.29 | 5.62 ± 0.2 |
| CLHHICTNYNNVCRKFPRDMKAMS [RHOBTB2] | 2.26 ± 0.18 | 2.42 ± 0.067 |
| MKQGGAALEGSALANGRALSAGSP [DLX1] | 4.67 ± 0.29 | 4.72 ± 0.13 |
| LESLPTDPLLLILSFLDYRDLINC [FBXO3] | 2.84 ± 0.61 | 2.85 ± 0.64 |
| CRETGSFLDLFRYRVLLGHTLILM [SLC22A15] | 2.97 ± 0.59 | 2.45 ± 0.38 |
| TTSWGLLSLGALVALCWQLGLLFE [SCNN1D] | 2.11 ± 0.13 | 2.13 ± 0.37 |
| IREKSRLFDTKHDVYSFAIVIWGV [RIPK4] | 3.27 ± 0.68 | 2.9 ± 0.83 |
| GAYGNLKRLYDKAAKMYHQLKKCE [SMG5] | 2.45 ± 1 | 2.325 ± 0.014 |
| VVGDNAVGKTRLICARACNTTLTQ [RHOBTB1] | 2.69 ± 0.32 | 2.73 ± 0.38 |
| HCPESGEEAVILLEDLERELDEPQ [ZSCAN9] | 5.55 ± 0.24 | 5.46 ± 0.44 |
| SSENFDDYMKEVGVGFATRKVAGM [FABP4] | 3.27 ± 0.1 | 3.55 ± 0.3 |
| PWCPHLVAVCPIPAAGLDVTQPCG [HDAC6] | 2.4 ± 0.24 | 2.67 ± 0.34 |
| QYKKEPVTTRQVRTIVEEVQDGKV [KRT17] | 5 ± 0.22 | 5.12 ± 0.29 |
| VQIYNLSQNIQEDDLQQLQLFTEY [ATL3] | 2.44 ± 0.35 | 2.28 ± 0.27 |

| Sequence | protein stability index (treatment: DMSO) | protein stability index (treatment: MLN4924 1 uM, 8 h) |
| --- | --- | --- |
| YVTPSDFDQLKQFLTFDKQVLRFY [EFHC1] | 2.03 ± 0.32 | 2.28 ± 0.29 |
| LNILIQSLDWETFEQYCAWQLFLA [INTS3] | 3.04 ± 0.92 | 2.62 ± 0.12 |
| TQSVSECITEDGRTVAVGDIVWGK [PWWP2B] | 4.09 ± 0.22 | 4.25 ± 0.21 |
| QKEGEFSTCFTELQRDFLKQRPTK [OAS1] | 4.26 ± 0.45 | 4.22 ± 0.3 |
| TLQDLVFDECGITDDQLLALLPSL [PRAME] | 2.84 ± 0.26 | 3.03 ± 0.34 |
| TIQKQLKDHSCKDNIREAFQIYDK [EFHC1] | 3.22 ± 0.13 | 3.13 ± 0.13 |
| TRILDGGNPFLDVPQALSATTYKH [PSD2] | 3.62 ± 0.17 | 3.73 ± 0.21 |
| MVATANNRQTFVNSAIRFLRKYSF [CHIT1] | 2.65 ± 0.19 | 2.63 ± 0.14 |
| VGSGGRRDSTARRPRPQGRSVSEP [RTN2] | 5.09 ± 0.04 | 5.19 ± 0.15 |
| KGYTPLHAAASNGQINVVKHLLNL [ANKRD44] | 2.67 ± 0.21 | 2.69 ± 0.25 |
| VTPRTALLTWTEPPVRPAGYLLSF [TNXB] | 2.42 ± 0.29 | 2.2 ± 0.26 |
| QVAKREREAATKHSKASLPTGEGS [CHCHD6] | 5.32 ± 0.47 | 5.26 ± 0.33 |
| EQIKTRTEELIVQTKQVYDAVGML [NLN] | 3.68 ± 0.25 | 3.88 ± 0.41 |
| VPERLLVVLDMEEGTLGYAIGGTY [SPSB2] | 2.69 ± 0.74 | 2.35 ± 0.56 |
| QPVMQSDRTAIRSDTTHLVTLGGV [KLHL13] | 3.88 ± 0.28 | 3.83 ± 0.35 |
| ITNQVVAQVDGAAMFAADPKKPIG [RAD51] | 4.58 ± 0.11 | 4.51 ± 0.2 |
| EGDATRDPGPEPEEEPGVRNGMAS [PSD2] | 5.7 ± 0.16 | 5.38 ± 0.34 |
| LIPKTWYSAEQFCVSRNSHLTSVT [CD207] | 2.17 ± 0.32 | 2.19 ± 0.28 |
| KRKEEEALKDSLRPKLSEEQQRII [VDR] | 5.09 ± 0.26 | 5.06 ± 0.23 |
| MNLDIVDLLKKAKFHHSDCLSTWL [RHOBTB3] | 2.53 ± 0.4 | 2.44 ± 0.63 |
| GSTNLTGLFFPPQLNGTANDTAGP [NFE2L1] | 3.93 ± 0.14 | 4 ± 0.25 |
| TREGFGHSTSLKVPLARSLQISEE [LCOR] | 3.39 ± 0.44 | 3.82 ± 0.22 |
| KCMRNGPNALIASLALGDLIYVVI [EDNRA] | 3.49 ± 0.4 | 2.79 ± 0.79 |

| Sequence | protein stability index (treatment: DMSO) | protein stability index (treatment: MLN4924 1 uM, 8 h) |
| --- | --- | --- |
| DKLLKHMIIEHKIVIADVKLVADF [ZNF277] | 3.07 ± 0.33 | 2.82 ± 0.72 |
| VHEFCAGRECQPRWETSSWSECSR [ADAMTSL2] | 2.42 ± 0.28 | 2.85 ± 0.53 |
| NESRYMIYEFWENSSVWNSHLQTN [NECAB1] | 2.26 ± 0.26 | 2.24 ± 0.23 |
| IRGRYLVALGHAYHPEEFVCSQCG [PDLIM7] | 2.51 ± 0.18 | 2.77 ± 0.3 |
| PAFVKFAYVAEREDELSLVKGSRV [NCK2] | 3.09 ± 0.34 | 3.08 ± 0.39 |
| ADNKIVSHLLVAEPEKIYAMPDPT [ESRRG] | 4.23 ± 0.17 | 4.22 ± 0.27 |
| GLGLEDADWTQGLPWRFEELLTCS [TEX19] | 2.42 ± 0.47 | 2.76 ± 0.62 |
| VKGSRVTVMEKCSDGWWRGSYNGQ [NCK2] | 2.13 ± 0.47 | 2.29 ± 0.34 |
| EGGIFTSPNYPSKYPPDRECIYII [NETO1] | 2.76 ± 0.94 | 2.95 ± 0.7 |
| WIGNEWLPSLGLPQYRSYFMECLV [PPFIA4] | 3.67 ± 0.24 | 2.15 ± 0.088 |
| AFCSSDEELEDSKALLYLPIAPEV [RBBP5] | 3.7 ± 0.21 | 3.66 ± 0.28 |
| LDASGEKMNGSHRDQGSSALSGVG [IKZF1] | 4.97 ± 0.51 | 5.05 ± 0.3 |
| ASFDVCESVDEAGGSGPAGLRAST [RHOBTB2] | 5.24 ± 0.21 | 5.02 ± 0.15 |
| LVLNSQQSDTLEQREEHELVHVME [RAD54B] | 4.59 ± 0.24 | 4.36 ± 0.21 |
| HCTTVDGQRQLMVPARDGTSCKLT [ADAMTSL2] | 4.41 ± 0.2 | 4.44 ± 0.11 |
| TFLTVTDLIGLPWVCFIYTIMSLA [SLC2A12] | 3.38 ± 0.45 | 2.84 ± 0.58 |
| PVCPTVCPPGGIHQVTVNESLLAP [KRT71] | 4.36 ± 0.082 | 4.16 ± 0.21 |
| SAVARSNSWMGSQGPMSQRRENYG [RBMY1A1] | 3.68 ± 0.43 | 3.96 ± 0.5 |
| ITMMALKVLGELNILPNTQKVTCF [TENT5D] | 2.86 ± 0.59 | 2.31 ± 0.75 |
| SLQSTGKCLLYCNGVLEPLYLCPN [SLC25A39] | 2.03 ± 0.34 | 2.21 ± 0.5 |
| MDHIRIFQEQVEKLKALHVDSAEY [NR2F2] | 3.07 ± 0.44 | 3.2 ± 0.36 |
| AGEAHMAADGETNGSCENSDASSH [EHMT1] | 5.55 ± 0.36 | 5.69 ± 0.15 |
| DPVELRRLNFQTPGMASHPPIPIL [PTPRD] | 2.91 ± 0.19 | 3.04 ± 0.33 |

| Sequence | protein stability index (treatment: DMSO) | protein stability index (treatment: MLN4924 1 uM, 8 h) |
| --- | --- | --- |
| ANRPDPNTPMEETVRAMTHVINQG [KCNAB2] | 4.75 ± 0.13 | 4.78 ± 0.12 |
| LAFLDKIKSVKESLQESVEDSLAT [IQUB] | 4.03 ± 0.45 | 3.77 ± 0.69 |
| KSEGQKIPKVELQISIYGVKILEP [GULP1] | 2.84 ± 1 | 2.3 ± 1.1 |
| KALSRKSTSFRVYIMAFDIKSEDM [FBXO33] | 2.74 ± 0.54 | 2.6 ± 0.55 |
| AGSPIRHENAVQGSAVEVQTYQPP [ISL2] | 4.91 ± 0.14 | 5.04 ± 0.19 |
| GSELKDSIPVTELSASGPFESHDL [POMP] | 5.28 ± 0.34 | 5.18 ± 0.57 |
| EKEELLQLSIERGKVLQNKQAEIC [CCDC89] | 4.44 ± 0.27 | 4.68 ± 0.17 |
| MYQELMEMCHKPDVELLQDLGDIV [TRIM43] | 2.57 ± 0.28 | 2.71 ± 0.45 |
| HCGVLEFVADEGICYLPHWMMQNL [UFD1] | 2.57 ± 0.59 | 2.13 ± 0.39 |
| HKTAGKRYVYRFVCDLQSLLGYTP [ETS1] | 3.08 ± 1 | 2.66 ± 0.57 |
| VVGTPCYISPELCEGKPYNQKSDI [NEK8] | 3.29 ± 0.38 | 3.49 ± 0.56 |
| ALLSCCLTVVSFYQVAALQGDLAS [TNFSF13B] | 3.57 ± 0.21 | 3.2 ± 0.26 |
| IRALLNLHTDVGSVRMRRAEKSVA [NEK8] | 2.42 ± 0.21 | 2.53 ± 0.19 |
| MQHSFPEPGRLYLDLILAILALEL [TMEM192] | 2.62 ± 0.41 | 2.45 ± 0.36 |
| YYKPGLLMMCFILPTLVPWYFWGE [SCD] | 3.24 ± 0.7 | 2.83 ± 0.52 |
| AICGDRATGKHYGASSCDGCKGFF [HNF4A] | 2.8 ± 0.24 | 2.98 ± 0.31 |
| SLKKGSLVKNLKDTLGLGKTRRKT [NCK2] | 3.96 ± 0.18 | 3.81 ± 0.31 |
| NEYRKLHPVLHKEEKQHLERLNKE [TRIM43] | 4.9 ± 0.21 | 4.87 ± 0.081 |
| VRVPNGGGGGGGLPISTVREVALL [CDK4] | 2.5 ± 0.33 | 2.63 ± 0.23 |
| LGIPYYETSVVAQFGIKDVFDNAI [RHOBTB2] | 2.17 ± 0.18 | 2.14 ± 0.23 |
